± gives the uncertainty stated by the source.
Experiment: self-splicing fitness, log relative to wild type (ln ratio); higher = more splicing; Tetrahymena group I intron in knt gene, E. coli kanamycin selection, DiMSum; sequences stand for … in CUCUCU…GGAGGGAAAAGUUAUCAGGCAUGCACCUGGUAGCUAGUCUUUAAACCAAUAGAUUGCAUCGGUUUAAAAGGCAAGACCGUCAAAUUGCGGGAAAGGGGUCAACAGCCGUUCAGUACCAAGUCUCAGGGGAAACUUUGAGAUGGCCUUGCAAAGGGUAUGGUAAUAAGCUGACGGACAUGGUCCUAACCACGCAGCCAAGUCCUAAGUCAACAGAUCUUCUGUUGAUAUGGAUGCAGUUCACAGACUAAAUGUCGGUCGGGGAAGAUGUAUUCUUCUCAUAAGAUAUAGUCGGACCUCUCCUUAAUGGGAGCUAGCGGAUGAAGUGAUGCAACACUGGAGCCGCUGGGAACUAAUUUGUAUGCGAAAGUAUAUUGAUUAGUUUUGGAGUACUCGUGGUCG
Procedure, shortened: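 Six replicate transformations of E. coli BL21(DE3) with a pET-22b(+) library were grown overnight at 37°C or 30°C. The library randomised all eight P1ex-region intron nucleotides, the intron lying in the knt kanamycin-resistance gene, and plates were LB agar with or without 25 μg/mL kanamycin plus 100 μg/mL carbenicillin, 50 μM IPTG and 0.2% rhamnose. Pooled colonies were amplicon-sequenced on an Illumina HiSeq 2500, and fitness is the DiMSum error-weighted combination of wild-type-normalised replicate fold changes, kanamycin versus none.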

| Sequence | self-splicing fitness (ln) (30 °C) | self-splicing fitness (ln) (37 °C) |
| --- | --- | --- |
| UUGUAGCAAUAUUACGAGUU | -3.22 ± 0.25 | -2.61 ± 0.26 |
| UUGUAGCAAUAUUACGCCCA | 0.762 ± 0.34 | -0.0943 ± 0.38 |
| UUGUAGCAAUAUUACGCGUA | -1.31 ± 0.18 | -0.742 ± 0.22 |
| UUGUAGCAAUAUUACGCGUG | -0.196 ± 0.079 | -0.498 ± 0.1 |
| UUGUAGCAAUAUUACGGAUU | – | -2 ± 0.34 |
| UUGUAGCAAUAUUACGGCAU | -0.835 ± 0.096 | 0.641 ± 0.11 |
| UUGUAGCAAUAUUACGGCCA | -0.782 ± 0.2 | 0.581 ± 0.28 |
| UUGUAGCAAUAUUACGGCUU | -1.41 ± 0.12 | 0.113 ± 0.14 |
| UUGUAGCAAUAUUACGGGAC | -0.759 ± 0.16 | -2.7 ± 0.36 |
| UUGUAGCAAUAUUACGGGGC | -3.56 ± 0.37 | -3.67 ± 0.46 |
| UUGUAGCAAUAUUACGUCCA | -0.4 ± 0.13 | -0.28 ± 0.14 |
| UUGUAGCAAUAUUACGUUCU | -2.42 ± 0.15 | -1.69 ± 0.2 |
| UUGUAGCAAUAUUACGUUGG | -2.77 ± 0.18 | -1.98 ± 0.21 |
| UUUAAGCAAUAUUACGAAAU | -2.95 ± 0.24 | -1.04 ± 0.19 |
| UUUAAGCAAUAUUACGAACG | -1.08 ± 0.18 | 0.0714 ± 0.21 |
| UUUAAGCAAUAUUACGAAGU | – | -1.62 ± 0.45 |
| UUUAAGCAAUAUUACGAAUA | -1.09 ± 0.21 | -0.334 ± 0.22 |
| UUUAAGCAAUAUUACGACAU | -1.45 ± 0.015 | -0.621 ± 0.034 |
| UUUAAGCAAUAUUACGACGC | -3.48 ± 0.2 | -0.476 ± 0.16 |
| UUUAAGCAAUAUUACGAGGG | -2.32 ± 0.19 | -1.57 ± 0.23 |
| UUUAAGCAAUAUUACGCACG | -0.565 ± 0.16 | -0.685 ± 0.22 |
| UUUAAGCAAUAUUACGCAUU | -2.05 ± 0.17 | -2.63 ± 0.24 |
| UUUAAGCAAUAUUACGCUCG | -0.577 ± 0.095 | 0.0454 ± 0.11 |

| Sequence | self-splicing fitness (ln) (30 °C) | self-splicing fitness (ln) (37 °C) |
| --- | --- | --- |
| UUUAAGCAAUAUUACGGGCA | -1.05 ± 0.12 | -0.851 ± 0.14 |
| UUUAAGCAAUAUUACGGGUG | -1.2 ± 0.13 | -0.234 ± 0.12 |
| UUUAAGCAAUAUUACGGUAA | -1.08 ± 0.12 | -1.01 ± 0.096 |
| UUUAAGCAAUAUUACGGUAG | -0.741 ± 0.17 | -0.971 ± 0.21 |
| UUUAAGCAAUAUUACGGUUA | -1.35 ± 0.12 | -0.505 ± 0.1 |
| UUUAAGCAAUAUUACGUAAA | -0.434 ± 0.1 | 0.519 ± 0.16 |
| UUUAAGCAAUAUUACGUCGA | -0.771 ± 0.092 | -0.225 ± 0.1 |
| UUUAAGCAAUAUUACGUCUA | -0.606 ± 0.085 | -0.214 ± 0.1 |
| UUUAAGCAAUAUUACGUGCC | -1.95 ± 0.21 | -0.891 ± 0.22 |
| UUUAAGCAAUAUUACGUUAU | -3.18 ± 0.2 | -2.16 ± 0.22 |
| UUUAAGCAAUAUUACGUUUG | -2.96 ± 0.19 | -1.42 ± 0.13 |
| UUUCAGCAAUAUUACGAAUA | -0.788 ± 0.15 | 0.446 ± 0.13 |
| UUUCAGCAAUAUUACGACAG | -0.245 ± 0.089 | 0.886 ± 0.15 |
| UUUCAGCAAUAUUACGACGC | -2.68 ± 0.24 | -1.67 ± 0.19 |
| UUUCAGCAAUAUUACGAUUC | – | -1.37 ± 0.41 |
| UUUCAGCAAUAUUACGCAAU | -2.36 ± 0.21 | -0.692 ± 0.23 |
| UUUCAGCAAUAUUACGCCAG | -1.4 ± 0.31 | -0.498 ± 0.24 |
| UUUCAGCAAUAUUACGCCGG | -0.905 ± 0.17 | -1.68 ± 0.25 |
| UUUCAGCAAUAUUACGCCUA | -0.129 ± 0.066 | 0.414 ± 0.078 |
| UUUCAGCAAUAUUACGGCGC | -1.11 ± 0.11 | -1.58 ± 0.16 |
| UUUCAGCAAUAUUACGGUCC | -2.8 ± 0.37 | -0.245 ± 0.35 |
| UUUCAGCAAUAUUACGUACA | -0.836 ± 0.11 | -0.465 ± 0.11 |
| UUUCAGCAAUAUUACGUAUG | -0.689 ± 0.081 | -0.635 ± 0.11 |

| Sequence | self-splicing fitness (ln) (30 °C) | self-splicing fitness (ln) (37 °C) |
| --- | --- | --- |
| UUUCAGCAAUAUUACGUUUC | – | -2.28 ± 0.29 |
| UUUGAGCAAUAUUACGAAAA | -2.31 ± 0.28 | -1.21 ± 0.24 |
| UUUGAGCAAUAUUACGACGA | -0.573 ± 0.15 | 0.211 ± 0.18 |
| UUUGAGCAAUAUUACGACUA | -1.98 ± 0.27 | -1.32 ± 0.28 |
| UUUGAGCAAUAUUACGAGAA | – | -2.17 ± 0.46 |
| UUUGAGCAAUAUUACGAGCA | – | -1.53 ± 0.43 |
| UUUGAGCAAUAUUACGAUAU | – | -0.926 ± 0.24 |
| UUUGAGCAAUAUUACGCAGC | -3.5 ± 0.28 | -2.43 ± 0.21 |
| UUUGAGCAAUAUUACGCCUA | -0.79 ± 0.45 | – |
| UUUGAGCAAUAUUACGCGCA | – | -1.65 ± 0.48 |
| UUUGAGCAAUAUUACGCUAC | – | -1.45 ± 0.3 |
| UUUGAGCAAUAUUACGCUAG | -2.68 ± 0.37 | -1.33 ± 0.23 |
| UUUGAGCAAUAUUACGCUGA | -2.58 ± 0.34 | – |
| UUUGAGCAAUAUUACGGCGG | -1.04 ± 0.24 | -1.57 ± 0.28 |
| UUUGAGCAAUAUUACGGGGC | – | -2.07 ± 0.45 |
| UUUGAGCAAUAUUACGGGUU | -3.23 ± 0.34 | -2.91 ± 0.48 |
| UUUGAGCAAUAUUACGGUAU | -4.23 ± 0.36 | -2.73 ± 0.38 |
| UUUGAGCAAUAUUACGUAUC | -4 ± 0.29 | -2.45 ± 0.23 |
| UUUGAGCAAUAUUACGUCAU | -3.88 ± 0.34 | -1.64 ± 0.21 |
| UUUGAGCAAUAUUACGUCUA | -1.05 ± 0.2 | -1.06 ± 0.21 |
| UUUGAGCAAUAUUACGUGCU | -3.64 ± 0.16 | -2.84 ± 0.2 |
| UUUGAGCAAUAUUACGUUAA | -2.96 ± 0.29 | -1.57 ± 0.22 |
| UUUUAGCAAUAUUACGAAGG | – | -1.85 ± 0.41 |

| Sequence | self-splicing fitness (ln) (30 °C) | self-splicing fitness (ln) (37 °C) |
| --- | --- | --- |
| UUUUAGCAAUAUUACGAAUC | – | -1.38 ± 0.4 |
| UUUUAGCAAUAUUACGACAU | -2.164 ± 0.021 | -1.09 ± 0.036 |
| UUUUAGCAAUAUUACGAUCA | -0.641 ± 0.15 | -0.391 ± 0.17 |
| UUUUAGCAAUAUUACGCCAA | -2.27 ± 0.35 | 0.0505 ± 0.22 |
| UUUUAGCAAUAUUACGCCCA | -0.313 ± 0.22 | 0.00602 ± 0.28 |
| UUUUAGCAAUAUUACGCCGG | -1.28 ± 0.18 | -0.833 ± 0.21 |
| UUUUAGCAAUAUUACGCCUG | -0.393 ± 0.22 | 0.333 ± 0.3 |
| UUUUAGCAAUAUUACGCCUU | -1.74 ± 0.34 | -0.968 ± 0.22 |
| UUUUAGCAAUAUUACGCGAC | -2.52 ± 0.34 | – |
| UUUUAGCAAUAUUACGCUAG | -3.18 ± 0.34 | -1.7 ± 0.35 |
| UUUUAGCAAUAUUACGCUCA | -0.731 ± 0.29 | 0.849 ± 0.44 |
| UUUUAGCAAUAUUACGCUCC | -1.4 ± 0.33 | -1.25 ± 0.45 |
| UUUUAGCAAUAUUACGCUUU | -3.71 ± 0.28 | -1.23 ± 0.16 |
| UUUUAGCAAUAUUACGGAUG | -1.12 ± 0.22 | 0.2 ± 0.15 |
| UUUUAGCAAUAUUACGGCUC | -2.49 ± 0.23 | -0.329 ± 0.21 |
| UUUUAGCAAUAUUACGUCGU | -3.49 ± 0.15 | -2.81 ± 0.17 |
| UUUUAGCAAUAUUACGUGUC | -2.93 ± 0.3 | -2.26 ± 0.38 |
| UUUUAGCAAUAUUACGUGUG | -2.29 ± 0.16 | -1.17 ± 0.15 |
| UUUUAGCAAUAUUACGUUAU | -2.53 ± 0.25 | -1.73 ± 0.35 |
| UUUUAGCAAUAUUACGUUCA | -1.18 ± 0.21 | -0.458 ± 0.22 |
| UUUUAGCAAUAUUACGUUGU | -2.65 ± 0.18 | -2.13 ± 0.24 |

Source: the supplement of paper PMC7877785
